T1: C-reactive protein (human), P02741
T1 chain: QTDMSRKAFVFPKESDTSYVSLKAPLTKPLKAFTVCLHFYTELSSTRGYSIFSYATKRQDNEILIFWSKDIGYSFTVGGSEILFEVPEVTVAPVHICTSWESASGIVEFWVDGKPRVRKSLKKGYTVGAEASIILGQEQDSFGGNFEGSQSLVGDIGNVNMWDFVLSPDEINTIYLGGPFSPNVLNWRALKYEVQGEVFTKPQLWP


Key:
[1] = target: T1, C-reactive protein (human), P02741; assay: FACS; conditions: modification not given
[2] = target: T1, C-reactive protein (human), P02741; assay: FACS; conditions: modification not given

| Binder | Kd [1] | Kd [2] |
| --- | --- | --- |
| EWACNDRGFNCQLQR [CRP-1] | 1.2 nM | 1 nM |
| FPIYNQRGFITLASP [CRP-2] | 3 nM |  |
| YPPRFQYYRFYYRGP [CRP-10] | 5 nM |  |
| MIFNSRGFLSLMSSG [CRP-6] | 8 nM |  |

From US20160032279
